Target: Autotaxin (ENPP2, NPP2) (Homo sapiens, UniProt Q13822 Q13822:36-863)
Test: inhibition

Row | Binder | IC50 [nM]
1 | CUGAGGGAAACAGGUUUUGCUCCUCGG (ssRNA, 2'-F pyrimidines, 2'-OH purines) [SEQ 18] | 34
2 | UCUGAGGGAAACAGGUUUCGCUCCUCGGA (ssRNA, 2'-F pyrimidines, 2'-OH purines) [SEQ 32] | 55
3 | UCUGAGGGAAACAGGUUUUGCUCCUCGGA (mixed, as 16(21) with dC23 dC24 dC26) [SEQ 16(33)] | 0.6
4 | UGGGAAGGAAACAGGUUUUGCUCUUCACC (ssRNA, 2'-F pyrimidines, 2'-OH purines) [SEQ 53] | 30
5 | UGAGGGAAACAGGUUUUGCUCCUCG (ssRNA, 2'-F pyrimidines, 2'-OH purines) [SEQ 17] | 37
6 | UCUGAGGGAAACAGGUUUUGCUCCUCGGA (mixed, as 16(32) with 5' 40 kDa PEG (GL2-400GS2)-ssH linker instead of 5' idT) [SEQ 16(34)] | 4.2
7 | UCUGAGGGAAACAGGUUUUGCUCCUCGGA (mixed, as 16(38) with 5' 40 kDa PEG (GL2-400GS2)-ssH linker instead of 5' idT) [SEQ 16(39)] | 3.8
8 | UCUGAGGGAAACAGGUUUUGCUCCUCGGA (mixed, as 16(47) with PS at A10 and 2'-OMe C2 U3) [SEQ 16(55)] | 0.4
9 | UCUGGGGGAAACAGGUUUUGCUCCCCGGA (ssRNA, 2'-F pyrimidines, 2'-OH purines) [SEQ 44] | 38
10 | UCUGAGGGAAACAGGUUUUGCUCCUCGGA (mixed, as 16(48) with PS at A10) [SEQ 16(49)] | 1.6
11 | UCUGAGGGAAACAGGCUUUGCUCCUCGGA (ssRNA, 2'-F pyrimidines, 2'-OH purines) [SEQ 31] | 130
12 | UCUGAGGGAAACAGGUUUUGCUCCUCGGA (mixed, as 16(49) with 2'-OMe C2 U3 U22 C24 U25) [SEQ 16(65)] | 0.3
13 | UCCGAGGGAAACAGGUUUUGCUCCUCGGA (ssRNA, 2'-F pyrimidines, 2'-OH purines) [SEQ 29] | 53
14 | UCUGAGGGUAACAGGUUAUGCUCCUCGGA (ssRNA, 2'-F pyrimidines, 2'-OH purines) [SEQ 26] | 510
15 | UCUGAGGGAAACAGGUUUUGCUCCUCGGA (mixed, as 16(21) with dC2) [SEQ 16(41)] | 2.2
16 | GAGGGAAACAGGUUUUGCUCCUC (ssRNA, 2'-F pyrimidines, 2'-OH purines) [SEQ 20] | 100
17 | UUUGAAGGAAACAGGUUUUGCUCUUCGAG (ssRNA, 2'-F pyrimidines, 2'-OH purines) [SEQ 51] | 85
18 | ACUGCUUGAAACAGGUUUUGCUGAGCAGU (ssRNA, 2'-F pyrimidines, 2'-OH purines) [SEQ 24] | 33
19 | UCUGAGGGAAACAGGUUUUGCUCCUCGGA (mixed, as 16(21) with dC23 dC26) [SEQ 16(38)] | 1.3
20 | UCUGAGGGAAACAGGUUUUGCUCCUCGGA (ssRNA, 2'-F pyrimidines, 2'-OH purines) [SEQ 16] | 12
21 | UCUGAGGGAGACAGGUUUUGCUCCUCGGA (ssRNA, 2'-F pyrimidines, 2'-OH purines) [SEQ 34] | 340
22 | SEQ 14 (ssRNA, 2'-F pyrimidines, 2'-OH purines) RNA: GGGCUAAACGCUCUGAGGGAAACAGGUUUUGCUCCUCGGAGCGUGGACGCCC | 26
23 | UCCGAGGGAAACAGGUUUUGCUCCUCGCA (ssRNA, 2'-F pyrimidines, 2'-OH purines) [SEQ 47] | 66

Row | Binder | IC50 [nM]
24 | UCUGAGGGAAACAGGUUUUGCUCCUCGGA (mixed, as 16(21) with 5' 80 kDa PEG (GL2-800GS2)-ssH linker instead of 5' idT) [SEQ 16(43)] | 3
25 | CGAGGGAAACAGGUUUUGCUCCUCG (ssRNA, 2'-F pyrimidines, 2'-OH purines) [SEQ 19] | 36
26 | AGGGAAACAGGUUUUGCUCCU (ssRNA, 2'-F pyrimidines, 2'-OH purines) [SEQ 21] | 710
27 | UCUGAGGGUAACAGGUUUUGCUCCUCGGA (ssRNA, 2'-F pyrimidines, 2'-OH purines) [SEQ 40] | 49
28 | UCUGAGGGAAACAGGUCUUGCUCCUCGGA (ssRNA, 2'-F pyrimidines, 2'-OH purines) [SEQ 41] | 43
29 | UCUGAGGGAAACAGGUUUUGCUCCUCGAA (ssRNA, 2'-F pyrimidines, 2'-OH purines) [SEQ 45] | 29
30 | UCUGAGGGAAACAGGUUUUGCUCCUCAGA (ssRNA, 2'-F pyrimidines, 2'-OH purines) [SEQ 30] | 50
31 | UCUGAGGGAAACAGGUUUUGCUCCUCGGA (mixed, as 16(21) with dT1 dC23 dC26) [SEQ 16(47)] | 2.4
32 | UCUGAGGGAAACAGGUUUUGCUCCUCGGA (mixed, as 16(32) with PS at A10) [SEQ 16(36)] | 0.3
33 | UCUGAGGGAAACAGGUUUUGCUCCUCGGA (mixed, as 16(21) with dT1) [SEQ 16(40)] | 0.9
34 | UUCGAGGGAAACAGGUUUUGCUCCUCAAA (ssRNA, 2'-F pyrimidines, 2'-OH purines) [SEQ 52] | 59
35 | UCUGAGGGGAACAGGUUUUGCUCCUCGGA (ssRNA, 2'-F pyrimidines, 2'-OH purines) [SEQ 33] | 690
36 | UCUGAGGGAAACAGGUUUUGCUCCUCGGA (mixed, as 16(33) with 5' 40 kDa PEG (GL2-400GS2)-ssH linker instead of 5' idT) [SEQ 16(35)] | 3
37 | UCUGAGGGAAACAGGUUUUGCUCCUCGGA (mixed, as 16(47) with 5' 80 kDa PEG (GL2-800GS2)-ssH linker instead of 5' idT) [SEQ 16(48)] | 7.8
38 | SEQ 8 aptamer (ssRNA, 2'-F pyrimidines, 2'-OH purines) RNA: GGGUGGCAACAGGACAUGGAACGCGCCCCAACUGCUUGAAACAGGUUUUGCUGAGCAGUGAUGUGAGAUGCGUCUUCGUAC | 49
39 | UCUGAGGGAAACAGGUUUUGCUCCUCGGA (mixed, as 16(47) with dA10 and phosphorodithioate at A10) [SEQ 16(68)] | 1.7
40 | CCGCUCUGAGGGAAACAGGUUUUGCUCCUCGGAGCGG (ssRNA, 2'-F pyrimidines, 2'-OH purines) [SEQ 15] | 7
41 | UCUGAGGGAAACAGGUUUUGCUCCUCGGA (mixed, as 16(45) with PS at A10) [SEQ 16(46)] | 2
42 | UCUGAGGGAAACAGGUUUUGCUCCUCGGA (mixed, as 16(21) with 5' 80 kDa PEG (GL4-800GS2)-ssH linker instead of 5' idT) [SEQ 16(45)] | 13
43 | UCUGAGGGAAACAGGUUUUGCUCCUCGGA (mixed, as 16(33) with PS at A10) [SEQ 16(37)] | 0.25
44 | UAGAGAUGGAAACAGGUUUUGCUCAUCUCA (ssRNA, 2'-F pyrimidines, 2'-OH purines) [SEQ 50] | 21
45 | UCUGAGGGAAACAGGUUUUGCUCCUCGGA (mixed, as 16(21) with dT3) [SEQ 16(42)] | 1
46 | UCUGAGGGAAACAGGUUUUGCUCCUCGGA (mixed, as 16(43) with PS at A10) [SEQ 16(44)] | 2.8
